Laboratory results taken from PMC7350312.

Target: HIV-1 CRF07_BC gp120 recombinant protein (HIV-1 CRF07_BC)
Assay: SPR; format not shown (protocol in the supplement)

Q: With “recombinant human galectin-3 (from UniProt P17931 1-250)” as the substance, how does the Kd read?
A: The Kd was 7 nM.
